Legend:
[1] = target: T1, biotinylated human D-hepcidin-25 (mirror-image peptide) (Homo sapiens) (UniProt P81172); test: SPR; details: 37 C, 1 mM Mg, 1 mM Ca
T1 sequence: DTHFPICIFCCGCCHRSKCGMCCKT

[2] = target: T2, human hepcidin-25 (L-peptide) (Homo sapiens) (UniProt P81172); test: SPR; details: L-RNA, 37 C
T2 sequence: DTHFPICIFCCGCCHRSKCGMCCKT

[3] = 5'-40 kDa PEG, 1 mM Mg, 1 mM Ca

Sequence | Kd ([2]; 1 mM Mg, 1 mM Ca) [nM] | Kd [2, 3] [nM] | other results
CGUGUGUAAAGUAGAGGACAAUUGUCGGCGUGAUAGUGCCACACG [229-B1-001 (D-RNA)] |  |  | Kd [1]: 0.5 nM
AGGCUCGGACAGCCGGGGGACACCAUAUACAGACUACGAUACGGGCCU [238-C4-001 (L-RNA)] | 0.9 |  | 
GCUGUGUAAAGUAGAGGACAAUUGUCGGCGUGAUAGUGCCACAGC [229-B1-002 (L-RNA)] | 1.47 |  | 
GCGCGCGUAUGGGAUUAAGUAAAUGAGGAGUUGGAGGAAGGCGCGC [238-D4-002-5'-PEG] |  | 0.53 | 
GCUGUGUAAAGUAGAGGACAAUUGUCGGCGUGAUAGUGCCACAGC [229-B1-002-5'-PEG] |  | 1.92 | 
GCACUCGUAAAGUAGAGGGACCCAGUCCGGCGUGAUAGUGCCGAGUGC [223-C5-001 (L-RNA)] | 2.7 |  | 
CGUGUGUAAAGUAGAGGACAAUUGUCGGCGUGAUAGUGCCACACG [229-B1-001 (L-RNA)] |  |  | Kd ([2]; data not shown): 1.25 nM
GCACUCGUAAAGUAGAGGGACCCAGUCCGGCGUGAUAGUGCCGAGUGC [223-C5-001-5'-PEG] |  | 4.44 | 
GCACUCGUAAAGUAGAGGGACCCAGUCCGGCGUGAUAGUGCCGAGUGC [223-C5-001 (D-RNA)] |  |  | Kd [1]: 1.2 nM
AGCGUGUCGUAUGGGAUUAAGUAAAUGAGGAGUUGGAGGAAGGGCAUGCU [238-D4-001 (L-RNA)] | 0.51 |  | 
GGCCGGACAGCCGGGGGACACCAUAUACAGACUACGAUACGGCC [238-C4-006-5'-PEG] |  | 0.76 | 
GCGCCGUAUGGGAUUAAGUAAAUGAGGAGUUGGAGGAAGGGCGC [238-D4-008-5'-PEG (NOX-H94)] |  | 0.64 | 

From patent US20160257958
